Reference: publication doi:10.1101/511394
Like-named read-outs stand apart in the source and are kept apart here.

Tests used:
[1] = molecular target: T1, WDR76 (FLAG-HA, HEK293 purified) (Homo sapiens, UniProt Q9H967 1-626); test: EMSA
T1 sequence: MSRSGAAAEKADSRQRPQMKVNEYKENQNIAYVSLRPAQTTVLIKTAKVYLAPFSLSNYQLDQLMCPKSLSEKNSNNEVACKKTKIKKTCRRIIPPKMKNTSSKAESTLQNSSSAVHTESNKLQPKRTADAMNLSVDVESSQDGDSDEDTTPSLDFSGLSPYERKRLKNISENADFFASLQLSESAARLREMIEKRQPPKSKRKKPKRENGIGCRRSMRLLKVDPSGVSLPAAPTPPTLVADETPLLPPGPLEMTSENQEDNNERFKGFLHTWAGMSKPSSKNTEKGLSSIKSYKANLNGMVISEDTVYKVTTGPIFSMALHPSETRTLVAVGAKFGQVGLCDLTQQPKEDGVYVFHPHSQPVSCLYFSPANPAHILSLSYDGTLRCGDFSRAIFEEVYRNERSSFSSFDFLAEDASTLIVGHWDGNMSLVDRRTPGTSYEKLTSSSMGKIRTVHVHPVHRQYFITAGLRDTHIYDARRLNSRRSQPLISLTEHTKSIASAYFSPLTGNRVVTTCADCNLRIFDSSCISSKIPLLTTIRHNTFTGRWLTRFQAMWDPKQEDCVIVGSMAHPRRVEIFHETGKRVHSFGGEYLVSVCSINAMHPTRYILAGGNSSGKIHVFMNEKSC

ZHX1 = molecular target: T2, ZHX1 (UniProt Q9UKY1 55-830); test: EMSA
T2 sequence: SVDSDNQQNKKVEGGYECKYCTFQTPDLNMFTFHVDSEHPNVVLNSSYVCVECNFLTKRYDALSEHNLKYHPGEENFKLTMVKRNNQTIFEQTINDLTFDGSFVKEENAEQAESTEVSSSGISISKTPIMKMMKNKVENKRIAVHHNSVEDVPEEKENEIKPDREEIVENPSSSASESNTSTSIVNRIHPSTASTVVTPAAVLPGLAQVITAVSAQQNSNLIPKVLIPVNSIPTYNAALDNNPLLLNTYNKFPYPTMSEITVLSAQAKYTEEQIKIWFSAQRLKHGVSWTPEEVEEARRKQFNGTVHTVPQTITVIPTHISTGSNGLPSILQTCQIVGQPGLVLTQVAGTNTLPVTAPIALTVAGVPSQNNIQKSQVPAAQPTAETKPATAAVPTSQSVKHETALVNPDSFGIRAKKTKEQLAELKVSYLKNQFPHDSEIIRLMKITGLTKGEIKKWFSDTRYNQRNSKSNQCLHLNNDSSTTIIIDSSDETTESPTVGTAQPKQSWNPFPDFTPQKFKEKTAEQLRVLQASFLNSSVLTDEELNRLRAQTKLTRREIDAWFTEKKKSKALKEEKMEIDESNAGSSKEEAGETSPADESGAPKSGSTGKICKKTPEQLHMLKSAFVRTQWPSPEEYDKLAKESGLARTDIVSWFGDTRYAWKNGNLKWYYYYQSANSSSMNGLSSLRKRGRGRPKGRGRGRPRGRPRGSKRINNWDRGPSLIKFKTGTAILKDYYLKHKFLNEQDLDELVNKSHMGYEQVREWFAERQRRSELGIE

[2] = molecular target: T3, WDR76 (FLAG-HA, insect cell) (Homo sapiens, UniProt Q9H967 1-626); test: EMSA
T3 sequence: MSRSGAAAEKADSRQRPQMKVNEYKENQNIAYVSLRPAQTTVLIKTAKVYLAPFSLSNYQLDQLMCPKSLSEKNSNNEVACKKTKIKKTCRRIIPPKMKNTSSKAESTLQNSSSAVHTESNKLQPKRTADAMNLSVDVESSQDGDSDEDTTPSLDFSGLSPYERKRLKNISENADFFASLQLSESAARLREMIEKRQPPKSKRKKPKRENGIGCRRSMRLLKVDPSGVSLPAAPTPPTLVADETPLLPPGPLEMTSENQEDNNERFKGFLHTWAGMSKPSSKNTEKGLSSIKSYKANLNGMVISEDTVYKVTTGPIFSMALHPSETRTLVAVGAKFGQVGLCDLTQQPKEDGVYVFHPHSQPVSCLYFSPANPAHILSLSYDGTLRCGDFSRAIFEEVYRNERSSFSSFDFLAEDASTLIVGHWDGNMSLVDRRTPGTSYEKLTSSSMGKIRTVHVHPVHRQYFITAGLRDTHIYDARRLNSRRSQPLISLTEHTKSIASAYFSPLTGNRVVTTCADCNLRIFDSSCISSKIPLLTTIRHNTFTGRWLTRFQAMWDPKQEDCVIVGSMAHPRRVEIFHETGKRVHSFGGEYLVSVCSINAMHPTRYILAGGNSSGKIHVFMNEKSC

WDR76 NTD = molecular target: T4, WDR76 NTD (Homo sapiens, UniProt Q9H967 1-151); test: filter binding
T4 sequence: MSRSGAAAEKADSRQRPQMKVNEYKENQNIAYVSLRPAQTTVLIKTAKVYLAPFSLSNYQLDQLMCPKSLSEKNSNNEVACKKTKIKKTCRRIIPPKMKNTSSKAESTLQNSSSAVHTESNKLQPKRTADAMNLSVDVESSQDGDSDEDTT

[3] = molecular target: T5, C3ORF37/HMCES full-length (UniProt Q96FZ2 1-354); test: filter binding
T5 sequence: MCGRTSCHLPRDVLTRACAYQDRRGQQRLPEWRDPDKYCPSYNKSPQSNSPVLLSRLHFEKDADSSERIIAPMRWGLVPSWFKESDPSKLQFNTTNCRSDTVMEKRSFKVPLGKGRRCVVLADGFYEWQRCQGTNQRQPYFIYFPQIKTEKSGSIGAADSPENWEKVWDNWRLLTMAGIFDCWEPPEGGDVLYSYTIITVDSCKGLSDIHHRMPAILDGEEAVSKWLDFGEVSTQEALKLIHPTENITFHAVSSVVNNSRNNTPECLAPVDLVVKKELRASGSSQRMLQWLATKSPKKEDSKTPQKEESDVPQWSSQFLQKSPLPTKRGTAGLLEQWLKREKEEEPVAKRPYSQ

[4] = molecular target: T3, WDR76 (FLAG-HA, insect cell); test: EMSA; remark: listed apart in the source

Binder | binding result [1] | binding result (ZHX1) | further results
hmC/hmC duplex (dsDNA, 5-hydroxymethylcytosine at central CpG C8 of both strands) DNA 1: GCGGCTGCGTGGGTCC DNA 2: GGACCCACGCAGCCGC | binds | no binding | binding result [2]: binds
hmC/C duplex (dsDNA, 5-hydroxymethylcytosine at central CpG of one strand (strand not stated), C on the other) DNA 1: GCGGCTGCGTGGGTCC DNA 2: GGACCCACGCAGCCGC | – | – | binding result (WDR76 NTD): binds
C/C duplex (dsDNA) DNA 1: GCGGCTGCGTGGGTCC DNA 2: GGACCCACGCAGCCGC | – | no binding | binding result [3]: no binding
mC/mC duplex (dsDNA, 5-methylcytosine at central CpG C8 of both strands) DNA 1: GCGGCTGCGTGGGTCC DNA 2: GGACCCACGCAGCCGC | – | no binding | –
fC/fC duplex (dsDNA, 5-formylcytosine at central CpG C8 of both strands) DNA 1: GCGGCTGCGTGGGTCC DNA 2: GGACCCACGCAGCCGC | no binding | no binding | binding result [4]: no binding
